These results are taken from US20090155256A1 (Pfizer, published 2009).

Experiment [1] has as its target Purified human C1q (191391, MP Biomedicals) (human, UniProt P02745 23-245; P02746 28-253; P02747 29-245). Briefly: ELISA: Aβ-coated plate, antibody, purified human C1q, FITC anti-C1q. A general note: ELISA stands for enzyme-linked immunosorbent assay.
Experiment [2] concerns the target T1, His-tagged domains of human FcγRI (R&D Systems, Cat # 1257-Fc) (human, UniProt P12314 16-288).
T1 construct: Bought construct; not shown: His tag
The experiment in a line: SPR (Biacore 3000), His-tagged receptor captured by penta-His antibody. (In general: SPR reads the build-up and loss of mass on a sensor chip optically.)

For experiment [3], the target named is T2, His-tagged domains of human FcγRIII (R&D Systems, Cat # 1597-Fc) (human, UniProt O75015 17-200, limits assumed).
T2 construct: not shown: His tag
The experiment is described as above.

In experiment [4] the target is T1, His-tagged domains of human FcγRI (R&D …). Briefly: SPR (Biacore 3000), His-tagged receptor captured by penta-His antibody on CM5 chip, antibody injected; RU relative to control.
Experiment [5] has as its target T2, His-tagged domains of human FcγRIII …. The experiment is described as above.

T1 sequence (P12314 16-288 limits assumed): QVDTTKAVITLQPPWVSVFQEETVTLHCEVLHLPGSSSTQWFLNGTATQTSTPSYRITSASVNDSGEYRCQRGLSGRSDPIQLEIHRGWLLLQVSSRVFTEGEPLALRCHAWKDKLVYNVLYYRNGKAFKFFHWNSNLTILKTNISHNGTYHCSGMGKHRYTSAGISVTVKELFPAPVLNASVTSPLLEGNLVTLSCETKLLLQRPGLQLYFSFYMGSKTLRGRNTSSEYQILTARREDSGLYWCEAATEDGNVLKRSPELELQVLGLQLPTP
T2 sequence (O75015 17-200 limits assumed): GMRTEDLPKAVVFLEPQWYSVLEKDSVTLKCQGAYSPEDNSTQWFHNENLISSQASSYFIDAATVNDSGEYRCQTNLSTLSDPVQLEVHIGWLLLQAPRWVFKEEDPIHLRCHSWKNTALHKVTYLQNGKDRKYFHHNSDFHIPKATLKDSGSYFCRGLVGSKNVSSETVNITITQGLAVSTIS
Chain of Purified human C1q (191391, MP Biomedicals) (P02745 23-245 limits assumed, chain 1 of 3): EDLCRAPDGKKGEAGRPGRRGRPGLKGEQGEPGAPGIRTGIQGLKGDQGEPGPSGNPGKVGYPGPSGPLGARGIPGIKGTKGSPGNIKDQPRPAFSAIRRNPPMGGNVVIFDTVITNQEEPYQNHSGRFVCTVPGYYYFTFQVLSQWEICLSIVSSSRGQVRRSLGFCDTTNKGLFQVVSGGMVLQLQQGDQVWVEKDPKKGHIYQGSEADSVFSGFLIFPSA
Chain of Purified human C1q (191391, MP Biomedicals) (P02746 28-253 limits assumed, chain 2 of 3): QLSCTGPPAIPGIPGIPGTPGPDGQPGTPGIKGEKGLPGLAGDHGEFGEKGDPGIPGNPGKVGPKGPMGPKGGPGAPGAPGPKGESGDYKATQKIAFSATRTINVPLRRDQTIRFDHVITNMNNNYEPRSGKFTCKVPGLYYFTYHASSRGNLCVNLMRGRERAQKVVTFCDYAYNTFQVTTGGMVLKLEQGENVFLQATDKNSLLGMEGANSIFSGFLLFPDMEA
Chain of Purified human C1q (191391, MP Biomedicals) (P02747 29-245 limits assumed, chain 3 of 3): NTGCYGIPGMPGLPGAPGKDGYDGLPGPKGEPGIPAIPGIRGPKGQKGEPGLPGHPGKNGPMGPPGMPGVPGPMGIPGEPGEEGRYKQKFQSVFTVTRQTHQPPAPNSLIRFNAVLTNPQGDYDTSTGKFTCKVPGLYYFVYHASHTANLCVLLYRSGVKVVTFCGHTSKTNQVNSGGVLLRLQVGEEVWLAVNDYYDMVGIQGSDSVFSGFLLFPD

B1: Humanized 3D6 2m (FcγR), human IgG1 L234A/G237A (EU numbering) (antibody)
heavy: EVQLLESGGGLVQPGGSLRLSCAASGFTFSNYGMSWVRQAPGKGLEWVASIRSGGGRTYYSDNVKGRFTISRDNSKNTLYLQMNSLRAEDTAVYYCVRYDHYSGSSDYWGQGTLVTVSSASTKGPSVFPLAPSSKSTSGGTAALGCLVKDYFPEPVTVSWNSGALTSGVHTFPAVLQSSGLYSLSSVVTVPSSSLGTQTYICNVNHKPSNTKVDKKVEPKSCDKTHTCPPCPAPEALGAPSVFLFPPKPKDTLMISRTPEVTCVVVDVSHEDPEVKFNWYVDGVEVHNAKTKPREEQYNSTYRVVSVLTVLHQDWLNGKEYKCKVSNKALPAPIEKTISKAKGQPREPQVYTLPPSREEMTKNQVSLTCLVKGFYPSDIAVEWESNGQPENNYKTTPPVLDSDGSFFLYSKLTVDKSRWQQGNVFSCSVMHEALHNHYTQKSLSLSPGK
light: DVVMTQSPLSLPVTPGEPASISCKSSQSLLDSDGKTYLNWLLQKPGQSPQRLIYLVSKLDSGVPDRFSGSGSGTDFTLKISRVEAEDVGVYYCWQGTHFPRTFGQGTKVEIKRTVAAPSVFIFPPSDEQLKSGTASVVCLLNNFYPREAKVQWKVDNALQSGNSQESVTEQDSKDSTYSLSSTLTLSKADYEKHKVYACEVTHQGLSSPVTKSFNRGEC
notes: also called Hu 3D6 2 m; Hu 3D6 2 m IgG1
With B1, the binding result in experiment [1], in experiment [2] and in experiment [3] was “no binding” throughout. Further, the “Relative Binding Capability (%)” value in experiment [4] and in experiment [5] was 0% throughout.

B2: Humanized 3D6 1m (hinge region), human IgG4 S241P (Kabat numbering) (antibody)
heavy: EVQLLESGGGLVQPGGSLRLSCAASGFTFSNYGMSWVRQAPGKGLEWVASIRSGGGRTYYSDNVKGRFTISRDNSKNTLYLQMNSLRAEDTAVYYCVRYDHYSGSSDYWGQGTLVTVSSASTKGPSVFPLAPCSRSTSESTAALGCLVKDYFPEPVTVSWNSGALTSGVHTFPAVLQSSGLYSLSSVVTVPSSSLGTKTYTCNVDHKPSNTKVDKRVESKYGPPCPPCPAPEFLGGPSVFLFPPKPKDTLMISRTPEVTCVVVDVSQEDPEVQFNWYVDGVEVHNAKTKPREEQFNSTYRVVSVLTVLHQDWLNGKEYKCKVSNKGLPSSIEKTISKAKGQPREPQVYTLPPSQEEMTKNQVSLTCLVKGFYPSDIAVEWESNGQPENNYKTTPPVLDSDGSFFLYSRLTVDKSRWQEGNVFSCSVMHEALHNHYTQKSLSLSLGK
light: B1 light
notes: also called Hu 3D6 1m IgG4; IgG4 isotype
With B2, the binding result in experiment [1] was “no binding”; in experiment [2], “binds”; in experiment [3], “no binding”. The “Relative Binding Capability (%)” value in experiment [5] amounted to 0%.

B3: Bapineuzumab (humanized 3D6, human IgG1, no Fc mutations) (antibody)
heavy: not shown
light: B1 light
notes: also called AAB-001; Bapineuzumab Control
Turning to B3, the “Relative Binding Capability (%)” value in experiment [4] and in experiment [5] was 100% in each case.

B4: Humanized 3D6 3m (FcγR) AAB-003, human IgG1 L234A/L235A/G237A (EU numbering) (antibody)
heavy: EVQLLESGGGLVQPGGSLRLSCAASGFTFSNYGMSWVRQAPGKGLEWVASIRSGGGRTYYSDNVKGRFTISRDNSKNTLYLQMNSLRAEDTAVYYCVRYDHYSGSSDYWGQGTLVTVSSASTKGPSVFPLAPSSKSTSGGTAALGCLVKDYFPEPVTVSWNSGALTSGVHTFPAVLQSSGLYSLSSVVTVPSSSLGTQTYICNVNHKPSNTKVDKKVEPKSCDKTHTCPPCPAPEAAGAPSVFLFPPKPKDTLMISRTPEVTCVVVDVSHEDPEVKFNWYVDGVEVHNAKTKPREEQYNSTYRVVSVLTVLHQDWLNGKEYKCKVSNKALPAPIEKTISKAKGQPREPQVYTLPPSREEMTKNQVSLTCLVKGFYPSDIAVEWESNGQPENNYKTTPPVLDSDGSFFLYSKLTVDKSRWQQGNVFSCSVMHEALHNHYTQKSLSLSPGK
light: B1 light
notes: also called Hu 3D6 3 m; Hu 3D6 3 m IgG1
On to B4, for which the binding result in experiment [1], in experiment [2] and in experiment [3] was “no binding” in each case. Further, the “Relative Binding Capability (%)” value in experiment [4] and in experiment [5] was 0% in each case.
